Experiments:
[1] = molecular target: T1, APP-TAP-AICD (human, UniProt P05067 18-695); test: streptavidin purification of APP-TAP-AICD from brain homogenate; LTQ-FT semiquantitative method, transgenic mouse 75 vs control mouse 72
[2] = molecular target: T1, APP-TAP-AICD; test: streptavidin purification of APP-TAP-AICD from brain homogenate; iTRAQ 116/114, transgenic mouse 75 vs control mouse 72; MALDI-TOF/TOF;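 also: relative protein abundance in the transgenic versus control pull-down, limited to proteins with high quality scores and above-average enrichment, without full normalization across the whole measurement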

probability that this protein is enriched [1]	iTRAQ ratio [2]	Binder
0.83	4.28	14-3-3 protein gamma (other, mouse, UniProt P61982 1-247, looked up, also called 14-3-3 γ) MVDREQLVQKARLAEQAERYDDMAAAMKNVTELNEPLSNEERNLLSVAYKNVVGARRSSWRVISSIEQKTSADGNEKKIEMVRAYREKIEKELEAVCQDVLSLLDNYLIKNCSETQYESKVFYLKMKGDYYRYLAEVATGEKRATVVESSEKAYSEAHEISKEHMQPTHPIRLGLALNYSVFYYEIQNAPEQACHLAKTAFDDAIAELDTLNEDSYKDSTLIMQLLRDNLTLWTSDQQDDDGGEGNN
1	4.08	Gamma enolase (2-phospho-D-glycerate hydrolyase) (Neural enolase) (enzyme, mouse, UniProt P17183 2-434, looked up, also called neuron-specific enolase) SIEKIWAREILDSRGNPTVEVDLYTAKGLFRAAVPSGASTGIYEALELRDGDKQRYLGKGVLKAVDHINSRIAPALISSGISVVEQEKLDNLMLELDGTENKSKFGANAILGVSLAVCKAGAAERDLPLYRHIAQLAGNSDLILPVPAFNVINGGSHAGNKLAMQEFMILPVGAESFRDAMRLGAEVYHTLKGVIKDKYGKDATNVGDEGGFAPNILENSEALELVKEAIDKAGYTEKMVIGMDVAASEFYRDGKYDLDFKSPADPSRYITGDQLGALYQDFVRNYPVVSIEDPFDQDDWAAWSKFTANVGIQIVGDDLTVTNPKRIERAVEEKACNCLLLKVNQIGSVTEAIQACKLAQENGWGVMVSHRSGETEDTFIADLVVGLCTGQIKTGAPCRSERLAKYNQLMRIEEELGDEARFAGHNFRNPSVL
0.83	4.51	14-3-3 protein zeta/delta (Protein kinase C inhibitor protein-1) (KCIP-1) (SEZ-2) (other, mouse, UniProt P63101 1-245, looked up) MDKNELVQKAKLAEQAERYDDMAACMKSVTEQGAELSNEERNLLSVAYKNVVGARRSSWRVVSSIEQKTEGAEKKQQMAREYREKIETELRDICNDVLSLLEKFLIPNASQPESKVFYLKMKGDYYRYLAEVAAGDDKKGIVDQSQQAYQEAFEISKKEMQPTHPIRLGLALNFSVFYYEILNSPEKACSLAKTAFDEAIAELDTLSEESYKDSTLIMQLLRDNLTLWTSDTQGDEAEAGEGGEN
1	3.94	14-3-3 protein epsilon (14-3-3E) (other, mouse, UniProt P62259 1-255, looked up) MDDREDLVYQAKLAEQAERYDEMVESMKKVAGMDVELTVEERNLLSVAYKNVIGARRASWRIISSIEQKEENKGGEDKLKMIREYRQMVETELKLICCDILDVLDKHLIPAANTGESKVFYYKMKGDYHRYLAEFATGNDRKEAAENSLVAYKAASDIAMTELPPTHPIRLGLALNFSVFYYEILNSPDRACRLAKAAFDDAIAELDTLSEESYKDSTLIMQLLRDNLTLWTSDMQGDGEEQNKEALQDVEDENQ
0.82	4.57	Dynamin-1 (enzyme, mouse, UniProt P39053 1-867, looked up, also called DYN1_MOUSE; Dynamin I) MGNRGMEDLIPLVNRLQDAFSAIGQNADLDLPQIAVVGGQSAGKSSVLENFVGRDFLPRGSGIVTRRPLVLQLVNSTTEYAEFLHCKGKKFTDFEEVRLEIEAETDRVTGTNKGISPVPINLRVYSPHVLNLTLVDLPGMTKVPVGDQPPDIEFQIRDMLMQFVTKENCLILAVSPANSDLANSDALKIAKEVDPQGQRTIGVITKLDLMDEGTDARDVLENKLLPLRRGYIGVVNRSQKDIDGKKDITAALAAERKFFLSHPSYRHLADRMGTPYLQKVLNQQLTNHIRDTLPGLRNKLQSQLLSIEKEVDEYKNFRPDDPARKTKALLQMVQQFAVDFEKRIEGSGDQIDTYELSGGARINRIFHERFPFELVKMEFDEKELRREISYAIKNIHGIRTGLFTPDMAFETIVKKQVKKIREPCLKCVDMVISELISTVRQCTKKLQQYPRLREEMERIVTTHIREREGRTKEQVMLLIDIELAYMNTNHEDFIGFANAQQRSNQMNKKKTSGNQDEILVIRKGWLTINNIGIMKGGSKEYWFVLTAENLSWYKDDEEKEKKYMLSVDNLKLRDVEKGFMSSKHIFALFNTEQRNVYKDYRQLELACETQEEVDSWKASFLRAGVYPERVGDKEKASETEENGSDSFMHSMDPQLERQVETIRNLVDSYMAIVNKTVRDLMPKTIMHLMINNTKEFIFSELLANLYSCGDQNTLMEESAEQAQRRDEMLRMYHALKEALSIIGDINTTTVSTPMPPPVDDSWLQVQSVPAGRRSPTSSPTPQRRAPAVPPARPGSRGPAPGPPPAGSALGGAPPVPSRPGASPDPFGPPPQVPSRPNRAPPGVPSLGAWRLNSPQGKHENRAGKARL
0.86	4	Vesicle-fusing ATPase (EC 3.6.4.6) (Vesicular-fusion protein NSF) (N-ethylmaleimide sensitive fusion protein) (enzyme, mouse, UniProt P46460 1-744, looked up) MAGRTMQAARCPTDELSLSNCAVVNEKDFQSGQHVMVRTSPNHKYIFTLRTHPSVVPGCIAFSLPQRKWAGLSIGQDIEVALYSFDKAKQCIGTMTIEIDFLQKKNIDSNPYDTDKMAAEFIQQFNNQAFSVGQQLVFSFNDKLFGLLVKDIEAMDPSILKGEPASGKRQKIEVGLVVGNSQVAFEKAENSSLNLIGKAKTKENRQSIINPDWNFEKMGIGGLDKEFSDIFRRAFASRVFPPEIVEQMGCKHVKGILLYGPPGCGKTLLARQIGKMLNAREPKVVNGPEILNKYVGESEANIRKLFADAEEEQRRLGANSGLHIIIFDEIDAICKQRGSMAGSTGVHDTVVNQLLSKIDGVEQLNNILVIGMTNRPDLIDEALLRPGRLEVKMEIGLPDEKGRLQILHIHTARMRGHQLLSADVDIKELAVETKNFSGAELEGLVRAAQSTAMNRHIKASTKVEVDMEKAESLQVTRGDFLASLENDIKPAFGTNQEDYASYIMNGIIKWGDPVTRVLDDGELLVQQTKNSDRTPLVSVLLEGPPHSGKTALAAKIAEESNFPFIKICSPDKMIGFSETAKCQAMKKIFDDAYKSQLSCVVVDDIERLLDYVPIGPRFSNLVLQALLVLLKKAPPQGRKLLIIGTTSRKDVLQEMEMLNAFSTTIHVPNIATGEQLLEALELLGNFKDKERTTIAQQVKGKKVWIGIKKLLMLIEMSLQMDPEYRVRKFLALMREEGASPLDFD
1	4.53	Aconitate hydratase; mitochondrial precursor (Citrate hydro-lyase) (enzyme, mouse, UniProt Q99KI0 28-780, looked up, also called Aconitase) QRAKVAMSHFEPSEYIRYDLLEKNINIVRKRLNRPLTLSEKIVYGHLDDPANQEIERGKTYLRLRPDRVAMQDATAQMAMLQFISSGLPKVAVPSTIHCDHLIEAQVGGEKDLRRAKDINQEVYNFLATAGAKYGVGFWRPGSGIIHQIILENYAYPGVLLIGTDSHTPNGGGLGGICIGVGGADAVDVMAGIPWELKCPKVIGVKLTGSLSGWTSPKDVILKVAGILTVKGGTGAIVEYHGPGVDSISCTGMATICNMGAEIGATTSVFPYNHRMKKYLSKTGRTDIANLAEEFKDHLVPDPGCQYDQVIEINLNELKPHINGPFTPDLAHPVADVGTVAEKEGWPLDIRVGLIGSCTNSSYEDMGRSAAVAKQALAHGLKCKSQFTITPGSEQIRATIERDGYAQILRDVGGIVLANACGPCIGQWDRKDIKKGEKNTIVTSYNRNFTGRNDANPETHAFVTSPEIVTALAIAGTLKFNPETDFLTGKDGKKFKLEAPDADELPRSDFDPGQDTYQHPPKDSSGQRVDVSPTSQRLQLLEPFDKWDGKDLEDLQILIKVKGKCTTDHISAAGPWLKFRGHLDNISNNLLIGAINIENGKANSVRNAVTQEFGPVPDTARYYKKHGIRWVVIGDENYGEGSSREHAALEPRHLGGRAIITKSFARIHETNLKKQGLLPLTFADPSDYNKIHPVDKLTIQGLKDFAPGKPLKCVIKHPNGTQETILLNHTFNETQIEWFRAGSALNRMKELQQ
1	3.64	SH3-containing GRB2-like protein 1 (SH3 domain protein 2B) (SH3p8) (other, mouse, UniProt Q62419 1-368, looked up, also called SH3G1_MOUSE) MSVAGLKKQFYKASQLVSEKVGGAEGTKLDDDFKDMEKKVDVTSKAVAEVLVRTIEYLQPNPASRAKLTMLNTVSKIRGQVKNPGYPQSEGLLGECMVRHGKELGGESNFGDALLDAGESMKRLAEVKDSLDIEVKQNFIDPLQNLCDKDLKEIQHHLKKLEGRRLDFDYKKKRQGKIPDEELRQALEKFEESKEVAETSMHNLLETDIEQVSQLSALVDAQLDYHRQAVQILEELADKLKRRVREASSRPKREFKPRPREPFELGELEQPNGGFPCAPAPKITASSSFRSSDKPIRMPSKSMPPLDQPSCKALYDFEPENDGELGFREGDLITLTNQIDENWYEGMLHGQSGFFPLSYVQVLVPLPQ

Reference: patent US20100169988A1 (published 2010)
